Data reported in patent US5861377.

Key:
[1] = target: trypsin (inhibition assay used during purification)
[2] = target: chymotrypsin (inhibition assay used during purification)

hirustasin (Hirudo antistasin)
specific activity (SA) of trypsin inhibition, Mono S pool [1]: 2.7 IU/mg
specific activity (SA) of chymotrypsin inhibition, Mono S pool [2]: 0.15 IU/mg
